From patent US20110082285A1 (STAIDSON BEIJING PHARMACEUTICAL, published 2011)

Biological target: T1, P75 (UniProt P08138 29-427)
T1 construct: whole, on cells
T1 sequence (looked up): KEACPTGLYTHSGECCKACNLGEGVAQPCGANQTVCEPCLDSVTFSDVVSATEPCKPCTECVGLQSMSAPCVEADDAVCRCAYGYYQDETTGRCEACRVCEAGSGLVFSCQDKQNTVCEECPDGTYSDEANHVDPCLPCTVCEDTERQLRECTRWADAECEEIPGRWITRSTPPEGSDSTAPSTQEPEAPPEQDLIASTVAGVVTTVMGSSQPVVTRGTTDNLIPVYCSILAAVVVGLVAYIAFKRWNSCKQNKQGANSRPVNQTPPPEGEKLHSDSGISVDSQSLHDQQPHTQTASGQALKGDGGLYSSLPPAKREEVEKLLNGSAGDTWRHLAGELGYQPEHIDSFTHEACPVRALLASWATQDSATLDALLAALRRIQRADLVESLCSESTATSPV
Assay: I^125-labeled ligand crosslinked to A875 tumor cells expressing P75, immunoprecipitation, SDS-PAGE, autoradiography
Method: The WT mouse NGF and mutant NGF was labeled with I¹²⁵, then added to both the cells expressing TrkA and the A875 tumor cells expressing P75. The ligand and receptor were crosslinked by N-hydroxysuccinimidyl-4-azidobenzoate, the cells were lysed, and the cross-linked complex was immunoprecipitated overnight at 4° C.

B1: mutant NGF (mouse NGF-β mature peptide with Lys32, Lys34 and Glu35 changed to Ala) (ligand)
chain: SSTHPVFHMGEFSVCDSVSVWVGDKTTATDIAGAAVTVLAEVNINNSVFRQYFFETKCRASNPVESGCRGIDSKHWNSYCTTTHTFVKALTTDEKQAAWRFIRIDTACVCVLSRKATRRG
modifications: Labelled with I^125 (labelled residues not stated). Disulfide-bonded monomer; NGF-β acts as a non-covalent homodimer, one chain given.
notes: also called mutant NGF-β; NGF mutant
B1: no binding.
